For 1 substance, Km results are on record in publication PMC4189797, “Mycoplasma synoviae enolase is a plasminogen/fibronectin binding protein” (BMC Veterinary Research, 2014).

The data set deals with O=C(O)[C@@H](CO)OP(=O)(O)O. Nature of the data set: purified protein. The settings on record: 100 mM HEPES, 7.7 mM KCl, 10 mM MgCl2, pH 7.5, 30°C, 2-PGA 0.5, 1.5 and 2.0 mM.

Usually Km stands for the concentration of substrate that gives half-maximal velocity. For the substance “rMsEno (recombinant M. synoviae enolase) (Mycoplasmopsis synoviae 53)”, the Km is 1100 µM.
